In US11639389B2, “Binding molecules with modified J-chain” (IGM Biosciences, Inc., dated 2023):

Biological target: DR5 (TRAILR2) (Homo sapiens)
Experiment: cell-based or functional assay

B1: anti-DR5 IgM+wt J-chain (antibody)
heavy: not shown
light: SSELTQDPAVSVALGQTVRITCQGDSLRSYYASWYQQKPGQAPVLVIYGKNNRPSGIPDRFSGSSSGNTASLTITGAQAEDEADYYCNSRDSSGNHVVFGGGTKLTVLGQPKAAPSVTLFPPSSEELQANKATLVCLISDFYPGAVTVAWKADSSPVKAGVETTTPSKQSNNKYAASSYLSLTPEQWKSHRSYSCQVTHEGSTVEKTVAPTECS
chain: not shown
  cell viability of COLO205 cells after 24 hours (Cell-Titer Glo): > 1000 fold, compared to the corresponding IgG

B2: anti-DR5 IgM (without J-chain) (antibody, V domains shown)
VH: EVQLVQSGGGVERPGGSLRLSCAASGFTFDDYGMSWVRQAPGKGLEWVSGINWNGGSTGYADSVKGRVTISRDNAKNSLYLQMNSLRAEDTAVYYCAKILGAGRGWYFDLWGKGTTVTVSS
VL: SSELTQDPAVSVALGQTVRITCQGDSLRSYYASWYQQKPGQAPVLVIYGKNNRPSGIPDRFSGSSSGNTASLTITGAQAEDEADYYCNSRDSSGNHVVFGGGTKLTVLG
  cell viability of COLO205 cells after 24 hours (Cell-Titer Glo): > 1000 fold, compared to the corresponding IgG
